# In patent publication US20080233097A1, “Phosphorylation Site Of Mitogen-Activated Protein Kinases, Modified Proteins And Applications” (UNIVERSIDAD AUTONOMA DE MADRID, priority 2005, published 2008):
# B1: p38T123D: p38α mutant; aspartic acid mimics the constitutively phosphorylated form of threonine 123 (protein, UniProt P47811 2-360, looked up, variant T123D)
# Mitogen-activated protein …: SQERPTFYRQELNKTIWEVPERYQNLSPVGSGAYGSVCAAFDTKTGHRVAVKKLSRPFQSIIHAKRTYRELRLLKHMKHENVIGLLDVFTPARSLEEFNDVYLVTHLMGADLNNIVKCQKLDDDHVQFLIYQILRGLKYIHSADIIHRDLKPSNLAVNEDCELKILDFGLARHTDDEMTGYVATRWYRAPEIMLNWMHYNQTVDIWSVGCIMAELLTGRTLFPGTDHIDQLKLILRLVGTPGAELLKKISSESARNYIQSLAQMPKMNFANVFIGANPLAVDLLEKMLVLDSDKRITAAQALAHAYFAQYHDPDDEPVADPYDQSFESRDLLIDEWKSLTYDEVISFVPPPLDQEEMES
# modifications: GST or Flag tag in some forms
# Experiments:
# MKK6CAM = test: p38 phosphorylation by MKK6CAM in vitro; assay type: biochemical; conditions: 150 nM fusion protein, 40 ng MKK6CAM
# Method: (§1) The reactions were carried out at 30° C. for 30 minutes and the proteins were separated in 8% SDS-PAGE gels. The amount of p38 in each point was visualized by Coomassie Blue staining. Then the radioactivity in each p38 isoform was determined. […] FIG. 11B: In these same assays, the ability of MKK6CAM-activated GST-p38WT, GST-p38T123A and GST-p38T123D to phosphorylate 2 μg of GST-ATF2 is evaluated. The representative autoradiography (^32P) of the total GST-ATF2 control (Coomassie Blue) is attached.
# As in the previous cases, the reactions were left to take place at 30° C. for 30 minutes and the proteins were resolved in 8% SDS-PAGE gels. With the purpose of assuring the inclusion of identical amounts of protein, they were visualized in the gel by Coomassie Blue staining. Subsequently, the radioactivity incorporated in each p38 isoform was determined.
# GST-ATF2 = test: phosphorylation of GST-ATF2 by MKK6CAM-activated p38; assay type: biochemical; conditions: with MKK6CAM, 2 μg GST-ATF2
# Method: as §1
# (§2) The ATF2 and MEF2A forms bound to GST were used to test the catalytic activity of GST-p38. In most cases, 2 μg of GST-ATF2 or GST-MEF2A, of own production, were used. The phosphorylation conditions are the same as set forth in the foregoing cases. Nevertheless, in other occasions, relevantly pointed out in the Figures, 0.2 μg of substrate were used and the phosphorylation reaction was allowed to take pace for 15 minutes only.
# GST-MEF2A = test: phosphorylation of GST-MEF2A by p38; assay type: biochemical; conditions: with MKK6CAM, 2 μg GST-MEF2A
# Method: FIG. 12A: In vitro phosphorylations are carried out with the fusion proteins indicated in the Figure, in the presence (+) or absence (−) of recombinant MKK6CAM(40 ng) and 2 μg of GST-MEF2A. The assay was left to take place for 30 minutes. The proteins were separated in 8% SDS-PAGE, stained with CBB and the incorporated radioactivity (^32P) was detected. Panels of a representative experiment of the three assays carried out independently are provided. FIG. 12B: The baseline activity of the three p38 fusion proteins in the absence of the MKK6CAM activator was evaluated in the previously described conditions. A representative autoradiography after a long exposure is shown.
# as §2
# MKK6 = test: GST pull-down of purified MKK6; assay type: binding; conditions: GST-p38 300 nM, MKK6 3 nM; vs T123A mutant or wild type
# Method: (§3) Purified GST-p38 and its T123 mutants (300 nM) were incubated in the presence of purified MKK6 (3 nM) or His-tagged MAPKAPK2 ([…], 20 nM) in a pull down assay with GST as a negative control. Sedimented proteins were developed by Western Blot using anti-MKK6, anti-Histidine (for His-MK2) or anti-GST (for total amounts of GST-p38s) antibodies. In all panels, results are representative of three independent experiments performed in duplicate.
# (§4) The proteins GST, GST-p38 wt, GST-p38T123A and GST-p38T123D were bacterially expressed and isolated using Gluthatione-Sepharose 4B (GE-Amersham) following standard procedures (Murga, C. et al. High affinity binding of beta-adrenergic receptor kinase to microsomal membranes. Modulation of the activity of bound kinase by heterotrimeric G protein activation. J Biol Chem 271, 985-994 (1996)). His-MAPKAPK2 was purified using Probond resin (Invitrogen) following manufacturer's indications. MKK6CAM was purchased from Upstate Biotech. The amount of proteins detailed in the legend to each figure were incubated in binding buffer (25 mM Tris pH 7.5, 0.25 M NaCl, 10 mM MgCl2, 5 mM NaF and 0.5% BSA) for 30 min at 30° C. with constant shaking. ATP (50 μM) was added for MAPKAPK2 pull downs. Precipitates were washed three times (10 ml) with the same buffer containing 0.5% Triton X100. Precipitated complexes were resolved by SDS-PAGE and developed by Western Blot.
# MAPKAPK2 (MK2) = biological target: T1, MAPKAPK2 (MK2) (Homo sapiens, UniProt P49137); test: GST pull-down of His-tagged MAPKAPK2; assay type: binding; conditions: GST-p38 300 nM, His-MK2 20 nM; vs T123A mutant or wild type
# T1 construct: made in house
# Method: as §3, §4
# T1 sequence (P49137 with tags, fused parts or gaps): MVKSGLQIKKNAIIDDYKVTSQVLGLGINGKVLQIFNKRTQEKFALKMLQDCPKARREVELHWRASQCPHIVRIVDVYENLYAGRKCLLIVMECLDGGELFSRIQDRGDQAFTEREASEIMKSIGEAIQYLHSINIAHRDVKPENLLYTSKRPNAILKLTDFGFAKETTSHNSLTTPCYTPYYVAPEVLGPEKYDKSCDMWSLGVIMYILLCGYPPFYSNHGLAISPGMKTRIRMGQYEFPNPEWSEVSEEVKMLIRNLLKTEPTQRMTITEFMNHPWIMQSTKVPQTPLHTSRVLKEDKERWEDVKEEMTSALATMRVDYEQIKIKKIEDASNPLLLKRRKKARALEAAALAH
molecule,measurement,setting,value
B1,phosphorylation by MKK6CAM (32P),MKK6CAM,much worse MKK6CAM substrate than the other two p38
same,catalytic activity on GST-ATF2,GST-ATF2,lacks the most minimum catalytic activity
same,catalytic activity on MEF2A,GST-MEF2A,completely abolished
same,ability to associate to MKK6,MKK6,severely impaired
same,ability to associate to MK2,MAPKAPK2 (MK2),severely impaired
